Drawing on paper doi:10.1101/2025.02.27.640518, this text covers fold less reporter activity than with nCBP-2 for 1 substance.

The target in the assay is nCBP-2^L51F (yeast two-hybrid fusion) (cassava). Briefly: two-hybrid.

As to “CBSV Naliendele VPg fused to the B42 transcriptional activation domain (natural protein)”, the fold less reporter activity than with nCBP-2 is 8 fold.
